Measured values reported in publication PMC4682080.

Key:
[1] = biological target: GAPDH (UniProt P04406); settings: cited from earlier work
[2] = biological target: Glyceraldehyde-3-phosphate dehydrogenase (rabbit muscle GAPDH) (rabbit) (UniProt P46406)
Chain of UniProt P46406 (P46406 whole entry): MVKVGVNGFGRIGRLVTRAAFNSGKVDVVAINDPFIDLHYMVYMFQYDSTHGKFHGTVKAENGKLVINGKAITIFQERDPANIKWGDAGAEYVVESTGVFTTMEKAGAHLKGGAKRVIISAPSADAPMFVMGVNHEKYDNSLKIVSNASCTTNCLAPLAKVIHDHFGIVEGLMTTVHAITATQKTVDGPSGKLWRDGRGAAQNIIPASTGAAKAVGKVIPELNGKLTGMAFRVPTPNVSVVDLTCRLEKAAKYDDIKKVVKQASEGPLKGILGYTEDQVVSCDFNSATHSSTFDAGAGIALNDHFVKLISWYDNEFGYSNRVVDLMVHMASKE

Chain of UniProt P04406 (P04406 2-335): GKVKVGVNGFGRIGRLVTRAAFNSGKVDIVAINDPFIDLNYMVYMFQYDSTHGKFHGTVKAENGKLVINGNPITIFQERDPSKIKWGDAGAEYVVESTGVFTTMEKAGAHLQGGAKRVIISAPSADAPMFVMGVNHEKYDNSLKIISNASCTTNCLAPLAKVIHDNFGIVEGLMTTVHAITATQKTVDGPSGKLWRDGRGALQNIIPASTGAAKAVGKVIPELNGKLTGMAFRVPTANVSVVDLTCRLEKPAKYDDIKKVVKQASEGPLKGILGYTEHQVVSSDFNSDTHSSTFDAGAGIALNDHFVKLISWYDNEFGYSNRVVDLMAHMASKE
Chain of Lactoferrin (P02788 20-710): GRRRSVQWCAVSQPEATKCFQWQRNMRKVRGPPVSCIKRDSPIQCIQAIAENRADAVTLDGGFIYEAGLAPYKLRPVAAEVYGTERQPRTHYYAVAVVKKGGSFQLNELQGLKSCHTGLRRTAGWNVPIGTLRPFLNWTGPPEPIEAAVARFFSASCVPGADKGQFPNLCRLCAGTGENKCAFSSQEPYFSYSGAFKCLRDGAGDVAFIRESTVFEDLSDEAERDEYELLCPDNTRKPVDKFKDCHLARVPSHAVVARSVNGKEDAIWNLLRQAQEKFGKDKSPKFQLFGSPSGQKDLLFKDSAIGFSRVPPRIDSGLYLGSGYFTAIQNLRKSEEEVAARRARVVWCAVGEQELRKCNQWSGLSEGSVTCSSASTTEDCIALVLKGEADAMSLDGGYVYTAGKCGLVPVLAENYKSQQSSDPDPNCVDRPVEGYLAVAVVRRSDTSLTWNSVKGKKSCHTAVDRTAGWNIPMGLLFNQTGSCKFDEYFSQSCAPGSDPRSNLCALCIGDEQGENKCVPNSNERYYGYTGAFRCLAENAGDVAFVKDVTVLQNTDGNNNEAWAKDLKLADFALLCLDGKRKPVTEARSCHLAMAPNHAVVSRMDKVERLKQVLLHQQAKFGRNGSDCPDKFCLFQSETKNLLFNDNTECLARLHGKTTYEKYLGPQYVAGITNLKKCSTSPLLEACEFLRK

For Lactoferrin (from UniProt P02788), which Kd [1] is on record?
The Kd was 43.8 nM.

Which Fold change in Lactoferrin MFI of cells internalizing both GAPDH and Lf vs. only lactoferrin +ve cells; CHO [2] does the source give for human lactoferrin (natural protein) here?
The Fold change in Lactoferrin MFI of cells internalizing both GAPDH and Lf vs. only lactoferrin +ve cells; CHO was 4.95 fold.

What about the Fold change in Lactoferrin MFI of cells internalizing both GAPDH and Lf vs. only lactoferrin +ve cells; CHO-TRVb [2] of the same substance?
Its Fold change in Lactoferrin MFI of cells internalizing both GAPDH and Lf vs. only lactoferrin +ve cells; CHO-TRVb is 2.83 fold.

What about the Fold change in Lactoferrin MFI of cells internalizing both GAPDH and Lf vs. only lactoferrin +ve cells; Human Lymphocytes [2] of the same substance?
Its Fold change in Lactoferrin MFI of cells internalizing both GAPDH and Lf vs. only lactoferrin +ve cells; Human Lymphocytes is 1.27 fold.

And the Fold change in Lactoferrin MFI of cells internalizing both GAPDH and Lf vs. only lactoferrin +ve cells; J774 [2]?
Its Fold change in Lactoferrin MFI of cells internalizing both GAPDH and Lf vs. only lactoferrin +ve cells; J774 is 2.62 fold.

What about the Fold change in Lactoferrin MFI of cells internalizing both GAPDH and Lf vs. only lactoferrin +ve cells; K562 [2] of the same substance?
The Fold change in Lactoferrin MFI of cells internalizing both GAPDH and Lf vs. only lactoferrin +ve cells; K562 was 1.6 fold.

And the Fold change in Lactoferrin MFI of cells internalizing both GAPDH and Lf vs. only lactoferrin +ve cells; Mouse Bone Marrow cells [2]?
Its Fold change in Lactoferrin MFI of cells internalizing both GAPDH and Lf vs. only lactoferrin +ve cells; Mouse Bone Marrow cells is 3.7 fold.

And the Fold change in Lactoferrin MFI of cells internalizing both GAPDH and Lf vs. only lactoferrin +ve cells; Mouse Enterocytes [2]?
Its Fold change in Lactoferrin MFI of cells internalizing both GAPDH and Lf vs. only lactoferrin +ve cells; Mouse Enterocytes is 5.52 fold.

And the Fold change in Lactoferrin MFI of cells internalizing both GAPDH and Lf vs. only lactoferrin +ve cells; Mouse Hepatocytes [2]?
The Fold change in Lactoferrin MFI of cells internalizing both GAPDH and Lf vs. only lactoferrin +ve cells; Mouse Hepatocytes was 4.28 fold.

And the Fold change in Lactoferrin MFI of cells internalizing both GAPDH and Lf vs. only lactoferrin +ve cells; Mouse Peritoneal Macrophages (Ex vivo) [2]?
The Fold change in Lactoferrin MFI of cells internalizing both GAPDH and Lf vs. only lactoferrin +ve cells; Mouse Peritoneal Macrophages (Ex vivo) was 1.17 fold.

And the Fold change in Lactoferrin MFI of cells internalizing both GAPDH and Lf vs. only lactoferrin +ve cells; Mouse Spleen Macrophages [2]?
Its Fold change in Lactoferrin MFI of cells internalizing both GAPDH and Lf vs. only lactoferrin +ve cells; Mouse Spleen Macrophages is 2.1 fold.

And the Fold change in Lactoferrin MFI of cells internalizing both GAPDH and Lf vs. only lactoferrin +ve cells; Mouse peritoneum cells (In-Vivo) [2]?
Its Fold change in Lactoferrin MFI of cells internalizing both GAPDH and Lf vs. only lactoferrin +ve cells; Mouse peritoneum cells (In-Vivo) is 6.1 fold.

What about the Fold change in Lactoferrin MFI of cells internalizing both GAPDH and Lf vs. only lactoferrin +ve cells; Neuro-2A (N2A) [2] of the same substance?
The Fold change in Lactoferrin MFI of cells internalizing both GAPDH and Lf vs. only lactoferrin +ve cells; Neuro-2A (N2A) was 4.02 fold.

And the Fold change in Lactoferrin MFI of cells internalizing both GAPDH and Lf vs. only lactoferrin +ve cells; PMA activated THP1 [2]?
The Fold change in Lactoferrin MFI of cells internalizing both GAPDH and Lf vs. only lactoferrin +ve cells; PMA activated THP1 was 2.07 fold.
